The assay deals with HA-tagged Mincle (macrophage-inducible C-type lectin, CLEC4E) (UniProt Q9ULY5). Put plainly: MST.

This is an account of results in PMC11794430.

Sequence of UniProt Q9ULY5 (Q9ULY5 whole entry): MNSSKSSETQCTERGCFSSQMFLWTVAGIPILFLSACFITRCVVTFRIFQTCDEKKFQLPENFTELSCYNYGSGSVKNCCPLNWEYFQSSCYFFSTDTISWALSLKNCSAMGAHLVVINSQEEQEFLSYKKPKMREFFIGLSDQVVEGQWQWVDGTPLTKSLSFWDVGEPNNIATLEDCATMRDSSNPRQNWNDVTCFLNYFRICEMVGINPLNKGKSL

The term Kd denotes a measure of binding affinity in units of concentration. Read a low Kd as higher affinity. As to “Haptoglobin purified from healthy controls (from UniProt P00738 162-406; P00738 19-160) (natural protein)”, the Kd came out at 22.9 µM. That is a double-digit micromolar value.
Regarding “Fucosylated haptoglobin purified from sepsis patients (from UniProt P00738 162-406; P00738 19-160) (natural protein)”, the Kd is 5.7 µM.
